Test results published in the supplement of paper PMC9112550, “Optimization of the antimicrobial peptide Bac7 by deep mutational scanning” (BMC Biology, 2022).

What follows are sequences tested on Escherichia coli TOP10 (assay: shrunken log2 fold change of peptide-encoding DNA abundance (4.5 h post-induction vs induction); higher = less antimicrobial activity (less host growth inhibition)). Conditions: time post-induction: 4.5 h; library: site-saturation at positions 5, 18, 19, 20.
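Further: peptides expressed intracellularly from a pBAD plasmid library in pooled LB shake-flask culture, induced with 0.3% L-arabinose, DNA abundance read by NGS, three biological replicates, DESeq2 with apeglm shrinkage.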

Row | Sequence | shrunken log2 fold change
1 | RRIRMRPPRLPRPRPRPEANPRP | 3.83
2 | RRIRLRPPRLPRPRPRPQYLPRP | -0.0559
3 | RRIRDRPPRLPRPRPRPQMNPRP | -0.315
4 | RRIRRRPPRLPRPRPRPMYMPRP | -0.212
5 | RRIRPRPPRLPRPRPRPHCQPRP | -0.0117
6 | RRIRCRPPRLPRPRPRPPNAPRP | 0.262
7 | RRIRIRPPRLPRPRPRPKCYPRP | -0.00654
8 | RRIRYRPPRLPRPRPRPWGMPRP | -0.364
9 | RRIRGRPPRLPRPRPRPASCPRP | 1.06
10 | RRIRNRPPRLPRPRPRPEPVPRP | -0.0258
11 | RRIRPRPPRLPRPRPRPHVRPRP | 0.036
12 | RRIRKRPPRLPRPRPRPNGAPRP | 0.168
13 | RRIRDRPPRLPRPRPRPDGSPRP | 0.0891
14 | RRIRDRPPRLPRPRPRPEDNPRP | 1.31
15 | RRIRNRPPRLPRPRPRPQNLPRP | -0.266
16 | RRIRFRPPRLPRPRPRPGNSPRP | 0.00114
17 | RRIRQRPPRLPRPRPRPQDNPRP | -0.304
18 | RRIRKRPPRLPRPRPRPDNQPRP | -0.233
19 | RRIRTRPPRLPRPRPRPILHPRP | -0.324
20 | RRIRQRPPRLPRPRPRPWMSPRP | -0.0167
21 | RRIRVRPPRLPRPRPRPCEPPRP | 0.137
22 | RRIRPRPPRLPRPRPRPDGMPRP | -0.0319
23 | RRIRMRPPRLPRPRPRPQIDPRP | 0.141
24 | RRIRWRPPRLPRPRPRPRRDPRP | 0.243
25 | RRIRQRPPRLPRPRPRPLRRPRP | 2.24

Row | Sequence | shrunken log2 fold change
26 | RRIRARPPRLPRPRPRPGPGPRP | 1.08
27 | RRIRPRPPRLPRPRPRPFQWPRP | -0.0697
28 | RRIRYRPPRLPRPRPRPVGGPRP | -0.179
29 | RRIRDRPPRLPRPRPRPAEVPRP | 0.46
30 | RRIRVRPPRLPRPRPRPTTEPRP | 0.14
31 | RRIRGRPPRLPRPRPRPVWWPRP | 0.997
32 | RRIRHRPPRLPRPRPRPTVEPRP | -0.0265
33 | RRIRVRPPRLPRPRPRPNNFPRP | 1.9
34 | RRIRHRPPRLPRPRPRPQCGPRP | -0.333
35 | RRIRTRPPRLPRPRPRPHDRPRP | -0.00195
36 | RRIRYRPPRLPRPRPRPGVKPRP | -0.188
37 | RRIRWRPPRLPRPRPRPSYHPRP | -0.568
38 | RRIRFRPPRLPRPRPRPNNKPRP | -0.646
39 | RRIRRRPPRLPRPRPRPPLTPRP | 0.841
40 | RRIRMRPPRLPRPRPRPWNAPRP | -0.0284
41 | RRIRFRPPRLPRPRPRPCPSPRP | -0.0894
42 | RRIRLRPPRLPRPRPRPVGGPRP | 0.516
43 | RRIRYRPPRLPRPRPRPWDQPRP | 0.0123
44 | RRIRERPPRLPRPRPRPRSSPRP | 0.116
45 | RRIRHRPPRLPRPRPRPKSYPRP | -0.245
46 | RRIRSRPPRLPRPRPRPANFPRP | 0.0977
47 | RRIRHRPPRLPRPRPRPISLPRP | -0.234
48 | RRIRGRPPRLPRPRPRPRHMPRP | 0.57
49 | RRIRYRPPRLPRPRPRPGNPPRP | -0.377
50 | RRIRPRPPRLPRPRPRPYCGPRP | -0.148

Row | Sequence | shrunken log2 fold change
51 | RRIRVRPPRLPRPRPRPHSMPRP | -0.333
52 | RRIRPRPPRLPRPRPRPQHDPRP | -0.176
53 | RRIRYRPPRLPRPRPRPDPVPRP | -0.0502
54 | RRIRYRPPRLPRPRPRPTRPPRP | 0.472
55 | RRIRMRPPRLPRPRPRPQWGPRP | 0.0503
56 | RRIRSRPPRLPRPRPRPLPPPRP | 0.518
57 | RRIRRRPPRLPRPRPRPQFHPRP | -0.133
58 | RRIRERPPRLPRPRPRPGCAPRP | 0.335
59 | RRIRKRPPRLPRPRPRPGWHPRP | 0.133
60 | RRIRQRPPRLPRPRPRPHEIPRP | -0.0149
61 | RRIRPRPPRLPRPRPRPFRTPRP | -0.362
62 | RRIRMRPPRLPRPRPRPMQDPRP | 1.14
63 | RRIRIRPPRLPRPRPRPASGPRP | 0.0837
64 | RRIRWRPPRLPRPRPRPPRGPRP | 0.584
65 | RRIRMRPPRLPRPRPRPIYEPRP | -0.0231
66 | RRIRYRPPRLPRPRPRPIGRPRP | -0.0417
67 | RRIRHRPPRLPRPRPRPQFKPRP | -0.024
68 | RRIRERPPRLPRPRPRPIVHPRP | -0.355
69 | RRIRIRPPRLPRPRPRPSLNPRP | -0.595
70 | RRIRNRPPRLPRPRPRPMWGPRP | -0.018
71 | RRIRMRPPRLPRPRPRPCAGPRP | 0.213
72 | RRIRCRPPRLPRPRPRPAQGPRP | 0.631
73 | RRIRDRPPRLPRPRPRPGCYPRP | 0.0592
74 | RRIRNRPPRLPRPRPRPSWPPRP | -0.0605
75 | RRIRERPPRLPRPRPRPRRWPRP | 0.267

Row | Sequence | shrunken log2 fold change
76 | RRIRCRPPRLPRPRPRPGTNPRP | -0.15
77 | RRIRIRPPRLPRPRPRPSCAPRP | -0.249
78 | RRIRPRPPRLPRPRPRPFTCPRP | -0.206
79 | RRIRHRPPRLPRPRPRPGAMPRP | 0.392
80 | RRIRWRPPRLPRPRPRPQPRPRP | 0.462
81 | RRIRMRPPRLPRPRPRPCINPRP | -0.0644
82 | RRIRSRPPRLPRPRPRPWNSPRP | -0.19
83 | RRIRDRPPRLPRPRPRPPWAPRP | 0.311
84 | RRIRGRPPRLPRPRPRPVMGPRP | 0.289
85 | RRIRHRPPRLPRPRPRPGAEPRP | 0.13
86 | RRIRVRPPRLPRPRPRPSGRPRP | 0.0291
87 | RRIRGRPPRLPRPRPRPAWDPRP | 0.76
88 | RRIRYRPPRLPRPRPRPWCRPRP | -0.414
89 | RRIRKRPPRLPRPRPRPYMLPRP | -0.579
90 | RRIRKRPPRLPRPRPRPRKIPRP | 0.968
91 | RRIRGRPPRLPRPRPRPQPIPRP | 0.114
92 | RRIRWRPPRLPRPRPRPPMQPRP | 0.322
93 | RRIRNRPPRLPRPRPRPVLIPRP | -0.27
94 | RRIRSRPPRLPRPRPRPRYCPRP | -0.483
95 | RRIRHRPPRLPRPRPRPTWLPRP | 0.326
96 | RRIRMRPPRLPRPRPRPVMTPRP | 0.148
97 | RRIRGRPPRLPRPRPRPHMGPRP | 0.121
98 | RRIRLRPPRLPRPRPRPNRWPRP | 0.254
99 | RRIRKRPPRLPRPRPRPQMQPRP | 0.134
100 | RRIRERPPRLPRPRPRPKVDPRP | 0.0519

Row | Sequence | shrunken log2 fold change
101 | RRIRQRPPRLPRPRPRPCKKPRP | 0.0212
102 | RRIRCRPPRLPRPRPRPMGVPRP | -0.152
103 | RRIRQRPPRLPRPRPRPKGTPRP | 0.109
104 | RRIRLRPPRLPRPRPRPTFPPRP | 0.131
105 | RRIRNRPPRLPRPRPRPINPPRP | -0.796
106 | RRIRVRPPRLPRPRPRPGGSPRP | 0.0297
107 | RRIRWRPPRLPRPRPRPASNPRP | -0.0347
108 | RRIRVRPPRLPRPRPRPGWLPRP | 0.543
109 | RRIRYRPPRLPRPRPRPFFIPRP | -1.11
110 | RRIRRRPPRLPRPRPRPDLMPRP | 2.63
111 | RRIRQRPPRLPRPRPRPGVTPRP | 0.0644
112 | RRIRLRPPRLPRPRPRPLTLPRP | 0.134
113 | RRIRPRPPRLPRPRPRPYICPRP | -0.149
114 | RRIRYRPPRLPRPRPRPDEFPRP | 0.0196
115 | RRIRVRPPRLPRPRPRPTVCPRP | 0.518
116 | RRIRARPPRLPRPRPRPVNPPRP | -0.00864
117 | RRIRKRPPRLPRPRPRPATWPRP | 0.573
118 | RRIRFRPPRLPRPRPRPHDCPRP | -0.0297
119 | RRIRGRPPRLPRPRPRPKSIPRP | -0.0446
120 | RRIRSRPPRLPRPRPRPSMDPRP | -0.514
121 | RRIRGRPPRLPRPRPRPWYPPRP | -0.119
122 | RRIRYRPPRLPRPRPRPMITPRP | -0.386
123 | RRIRWRPPRLPRPRPRPPPYPRP | 0.0878
124 | RRIRLRPPRLPRPRPRPVYWPRP | -0.14
125 | RRIRKRPPRLPRPRPRPFCMPRP | -0.115
